These results are taken from PMC314469, “Protein Interaction Networks by Proteome Peptide Scanning” (PLoS Biology, 2004).

Sho1 SH3 (SHO1_YEAST), P40073, sequence (P40073 295-366): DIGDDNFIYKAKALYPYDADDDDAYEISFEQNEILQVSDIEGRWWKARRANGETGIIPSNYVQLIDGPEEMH

One test deals with T1, Rvs167 SH3 (RV167_YEAST), P39743.
T1 chain: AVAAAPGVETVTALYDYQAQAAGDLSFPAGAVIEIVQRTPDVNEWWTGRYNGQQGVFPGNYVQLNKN
As to the kind of experiment: SPOT array.
Molecule FIKNKAKPLIPIEL [YJL201W 254-267] yielded a normalised SPOT signal, Boehringer light units (BLU); mean over the file's lines of this peptide of 952.
Consider FGSNKNNPVPPELT [YIL125W 149-162], for which the normalised SPOT signal, Boehringer light units (BLU); mean over the file's lines of this peptide was found to be 27.1.
On the same count and under the same terms, the figure for FLHSKKIPEVPQTD [YGR281W 89-102] is 15.3.
The same measure, in the same setting: as for FHDPKFIPNKPYRQ [YGR019W 335-348], the figure is 28.7; as for FKVYRWNPDEPSAK [YLL041C 36-49], 99.4.
Molecule FQDYRSSPWSPSRS [YLR169W 87-100] came in with a normalised SPOT signal, Boehringer light units (BLU); mean over the file's lines of this peptide of 575.
Still for that read-out and setting: as for FRPHRLAPSAPATK [YOL113W 305-318], the figure is 228; as for FLQDRVIPIFPHYP [YMR283C 55-68], 72.9.
Still for that read-out and setting: as for FGTAKILPEEPSNT [YDR490C 268-281], the figure is 23.2.
The same measure, in the same setting: the figure for FQPQRTAPKPPISA [YNL298W 451-464] is 148.
FQYTKGRPLAPKGA [YGL009C 253-266] returned a normalised SPOT signal, Boehringer light units (BLU); mean over the file's lines of this peptide of 22.3.
As to FHPEKLTPYTPMTG [YHR204W 260-273], the normalised SPOT signal, Boehringer light units (BLU); mean over the file's lines of this peptide is 12.7.
Still for that read-out and setting: as for FNGDRLVPTLPTVS [YPR095C 191-204], the figure is 2290; as for FLLKKMFPAPPLPT [YDL172C 130-143], 52.4.

Another test has as its target T2, Boi2 SH3 (BOI2_YEAST), P39969.
T2 chain: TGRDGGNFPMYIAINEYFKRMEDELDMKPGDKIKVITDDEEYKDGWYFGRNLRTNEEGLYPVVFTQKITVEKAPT
As to the kind of experiment: SPOT array.
The molecule FIKNKAKPLIPIEL [YJL201W 254-267] showed a normalised SPOT signal, Boehringer light units (BLU); mean over the file's lines of this peptide of 10.9.
On the same count and under the same terms, the figure for FGSNKNNPVPPELT [YIL125W 149-162] is 13.4.
On the same count and under the same terms, as for FLHSKKIPEVPQTD [YGR281W 89-102], the figure is 8.2; as for FHDPKFIPNKPYRQ [YGR019W 335-348], 16.3.
In turn, FKVYRWNPDEPSAK [YLL041C 36-49] returned a normalised SPOT signal, Boehringer light units (BLU); mean over the file's lines of this peptide of 28.9.
The same measure, in the same setting: as for FQDYRSSPWSPSRS [YLR169W 87-100], the figure is 314; as for FRPHRLAPSAPATK [YOL113W 305-318], 26; as for FLQDRVIPIFPHYP [YMR283C 55-68], 1.2.
Still for that read-out and setting: as for FGTAKILPEEPSNT [YDR490C 268-281], the figure is 7.7; as for FQPQRTAPKPPISA [YNL298W 451-464], 19.6; as for FQYTKGRPLAPKGA [YGL009C 253-266], 14.9.
Molecule FHPEKLTPYTPMTG [YHR204W 260-273] registered a normalised SPOT signal, Boehringer light units (BLU); mean over the file's lines of this peptide of 19.5.
In turn, FNGDRLVPTLPTVS [YPR095C 191-204] yielded a normalised SPOT signal, Boehringer light units (BLU); mean over the file's lines of this peptide of 190.
FLLKKMFPAPPLPT [YDL172C 130-143] displayed a normalised SPOT signal, Boehringer light units (BLU); mean over the file's lines of this peptide of 27.9.

Another test concerns the target T3, Yfr024 SH3 (LSB3_YEAST), P43603.
T3 chain: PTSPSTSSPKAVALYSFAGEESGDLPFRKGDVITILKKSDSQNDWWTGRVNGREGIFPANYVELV
Briefly: SPOT array.
Molecule FIKNKAKPLIPIEL [YJL201W 254-267] registered a normalised SPOT signal, Boehringer light units (BLU); mean over the file's lines of this peptide of 146.
The same measure, in the same setting: the figure for FGSNKNNPVPPELT [YIL125W 149-162] is 70.
Still for that read-out and setting: as for FLHSKKIPEVPQTD [YGR281W 89-102], the figure is 15.3.
On the same count and under the same terms, the figure for FHDPKFIPNKPYRQ [YGR019W 335-348] is 498.
In turn, FKVYRWNPDEPSAK [YLL041C 36-49] returned a normalised SPOT signal, Boehringer light units (BLU); mean over the file's lines of this peptide of 154.
Same read-out and setting: as for FQDYRSSPWSPSRS [YLR169W 87-100], the figure is 548.
Still for that read-out and setting: as for FRPHRLAPSAPATK [YOL113W 305-318], the figure is 1010.
In turn, FLQDRVIPIFPHYP [YMR283C 55-68] showed a normalised SPOT signal, Boehringer light units (BLU); mean over the file's lines of this peptide of 173.
The molecule FGTAKILPEEPSNT [YDR490C 268-281] yielded a normalised SPOT signal, Boehringer light units (BLU); mean over the file's lines of this peptide of 0.1.
Turning to FQPQRTAPKPPISA [YNL298W 451-464], the normalised SPOT signal, Boehringer light units (BLU); mean over the file's lines of this peptide came to 379.
On the same count and under the same terms, the figure for FQYTKGRPLAPKGA [YGL009C 253-266] is 190.
Molecule FHPEKLTPYTPMTG [YHR204W 260-273] displayed a normalised SPOT signal, Boehringer light units (BLU); mean over the file's lines of this peptide of 45.9.
Same read-out and setting: the figure for FNGDRLVPTLPTVS [YPR095C 191-204] is 2210; for FLLKKMFPAPPLPT [YDL172C 130-143] it is 132.

The next test concerns the target T4, Boi1 SH3 (BOI1_YEAST), P38041.
T4 chain: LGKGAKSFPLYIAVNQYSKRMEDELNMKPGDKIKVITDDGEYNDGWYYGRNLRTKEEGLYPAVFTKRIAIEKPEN
As to the kind of experiment: SPOT array.
Regarding FIKNKAKPLIPIEL [YJL201W 254-267], the normalised SPOT signal, Boehringer light units (BLU); mean over the file's lines of this peptide was 700.
The molecule FGSNKNNPVPPELT [YIL125W 149-162] registered a normalised SPOT signal, Boehringer light units (BLU); mean over the file's lines of this peptide of 58.8.
Regarding FLHSKKIPEVPQTD [YGR281W 89-102], the normalised SPOT signal, Boehringer light units (BLU); mean over the file's lines of this peptide worked out at 37.9.
The molecule FHDPKFIPNKPYRQ [YGR019W 335-348] came in with a normalised SPOT signal, Boehringer light units (BLU); mean over the file's lines of this peptide of 518.
Still for that read-out and setting: the figure for FKVYRWNPDEPSAK [YLL041C 36-49] is 892.
On the same count and under the same terms, the figure for FQDYRSSPWSPSRS [YLR169W 87-100] is 33700; for FRPHRLAPSAPATK [YOL113W 305-318] it is 9160; for FLQDRVIPIFPHYP [YMR283C 55-68] it is 102.
FGTAKILPEEPSNT [YDR490C 268-281] registered a normalised SPOT signal, Boehringer light units (BLU); mean over the file's lines of this peptide of 35.5.
As to FQPQRTAPKPPISA [YNL298W 451-464], the normalised SPOT signal, Boehringer light units (BLU); mean over the file's lines of this peptide was 4820.
On the same count and under the same terms, as for FQYTKGRPLAPKGA [YGL009C 253-266], the figure is 59.6; as for FHPEKLTPYTPMTG [YHR204W 260-273], 95.4.
Same read-out and setting: the figure for FNGDRLVPTLPTVS [YPR095C 191-204] is 132; for FLLKKMFPAPPLPT [YDL172C 130-143] it is 235.

A further test has as its target Sho1 SH3 (SHO1_YEAST), P40073. As to the kind of experiment: SPOT array.
FIKNKAKPLIPIEL [YJL201W 254-267] registered a normalised SPOT signal, Boehringer light units (BLU); mean over the file's lines of this peptide of 410.
Still for that read-out and setting: the figure for FGSNKNNPVPPELT [YIL125W 149-162] is 30.7.
Consider FLHSKKIPEVPQTD [YGR281W 89-102], for which the normalised SPOT signal, Boehringer light units (BLU); mean over the file's lines of this peptide was 1190.
Still for that read-out and setting: as for FHDPKFIPNKPYRQ [YGR019W 335-348], the figure is 122.
On the same count and under the same terms, as for FKVYRWNPDEPSAK [YLL041C 36-49], the figure is 75.1; as for FQDYRSSPWSPSRS [YLR169W 87-100], 953; as for FRPHRLAPSAPATK [YOL113W 305-318], 44.7.
On the same count and under the same terms, the figure for FLQDRVIPIFPHYP [YMR283C 55-68] is 4.9; for FGTAKILPEEPSNT [YDR490C 268-281] it is 183.
The molecule FQPQRTAPKPPISA [YNL298W 451-464] registered a normalised SPOT signal, Boehringer light units (BLU); mean over the file's lines of this peptide of 39.8.
The same measure, in the same setting: the figure for FQYTKGRPLAPKGA [YGL009C 253-266] is 66.9; for FHPEKLTPYTPMTG [YHR204W 260-273] it is 25.1; for FNGDRLVPTLPTVS [YPR095C 191-204] it is 40.
The same measure, in the same setting: as for FLLKKMFPAPPLPT [YDL172C 130-143], the figure is 149.

Another test concerns the target T5, Myo5 SH3 (MYO5_YEAST), Q04439.
T5 chain: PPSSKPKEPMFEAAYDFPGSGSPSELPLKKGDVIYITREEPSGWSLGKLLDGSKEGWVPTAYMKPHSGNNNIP
Briefly: SPOT array.
In the case of FIKNKAKPLIPIEL [YJL201W 254-267], the normalised SPOT signal, Boehringer light units (BLU); mean over the file's lines of this peptide was determined as 656.
Same read-out and setting: as for FGSNKNNPVPPELT [YIL125W 149-162], the figure is 172; as for FLHSKKIPEVPQTD [YGR281W 89-102], 288.
On the same count and under the same terms, as for FHDPKFIPNKPYRQ [YGR019W 335-348], the figure is 300.
On the same count and under the same terms, the figure for FKVYRWNPDEPSAK [YLL041C 36-49] is 99.
For the molecule FQDYRSSPWSPSRS [YLR169W 87-100], the normalised SPOT signal, Boehringer light units (BLU); mean over the file's lines of this peptide was 264.
Still for that read-out and setting: the figure for FRPHRLAPSAPATK [YOL113W 305-318] is 1410; for FLQDRVIPIFPHYP [YMR283C 55-68] it is 261; for FGTAKILPEEPSNT [YDR490C 268-281] it is 153.
For FQPQRTAPKPPISA [YNL298W 451-464], the normalised SPOT signal, Boehringer light units (BLU); mean over the file's lines of this peptide is 88300.
Regarding FQYTKGRPLAPKGA [YGL009C 253-266], the normalised SPOT signal, Boehringer light units (BLU); mean over the file's lines of this peptide came to 235.
FHPEKLTPYTPMTG [YHR204W 260-273] showed a normalised SPOT signal, Boehringer light units (BLU); mean over the file's lines of this peptide of 96.5.
Molecule FNGDRLVPTLPTVS [YPR095C 191-204] registered a normalised SPOT signal, Boehringer light units (BLU); mean over the file's lines of this peptide of 161.
As to FLLKKMFPAPPLPT [YDL172C 130-143], the normalised SPOT signal, Boehringer light units (BLU); mean over the file's lines of this peptide was found to be 23700.

The next test deals with T6, Yhr016c SH3 (YSC84_YEAST), P32793.
T6 chain: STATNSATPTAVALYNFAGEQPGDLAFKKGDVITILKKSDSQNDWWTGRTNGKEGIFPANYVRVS
As to the kind of experiment: SPOT array.
For FIKNKAKPLIPIEL [YJL201W 254-267], the normalised SPOT signal, Boehringer light units (BLU); mean over the file's lines of this peptide was determined as 72.
Same read-out and setting: the figure for FGSNKNNPVPPELT [YIL125W 149-162] is 37.5; for FLHSKKIPEVPQTD [YGR281W 89-102] it is 25.6.
Turning to FHDPKFIPNKPYRQ [YGR019W 335-348], the normalised SPOT signal, Boehringer light units (BLU); mean over the file's lines of this peptide was determined as 113.
Same read-out and setting: the figure for FKVYRWNPDEPSAK [YLL041C 36-49] is 29.3; for FQDYRSSPWSPSRS [YLR169W 87-100] it is 221.
The same measure, in the same setting: as for FRPHRLAPSAPATK [YOL113W 305-318], the figure is 109; as for FLQDRVIPIFPHYP [YMR283C 55-68], 26.6; as for FGTAKILPEEPSNT [YDR490C 268-281], 30.3.
Same read-out and setting: as for FQPQRTAPKPPISA [YNL298W 451-464], the figure is 21.1; as for FQYTKGRPLAPKGA [YGL009C 253-266], 42.6; as for FHPEKLTPYTPMTG [YHR204W 260-273], 42.
For the molecule FNGDRLVPTLPTVS [YPR095C 191-204], the normalised SPOT signal, Boehringer light units (BLU); mean over the file's lines of this peptide was 750.
FLLKKMFPAPPLPT [YDL172C 130-143] had a normalised SPOT signal, Boehringer light units (BLU); mean over the file's lines of this peptide of 40.3.
